# Legend:
# Format in all cases: cell-based
# [1] = YFP quench plate reader assay, response to ABT-126; conditions: LX293T YFP reporter cells; for percent quench of YFP fluorescence, 50 nM abt: 50 nM ABT-126; for percent quench of YFP fluorescence, 100 nM abt: 100 nM ABT-126; for percent quench of YFP fluorescence, 300 nM abt: 300 nM ABT-126; for percent quench of YFP fluorescence, 1 uM abt: 1 uM ABT-126
# Source text: (§1) FIGS. 1A-FIG. 1G show the heat maps of the percent quench of YFP fluorescence in the mutants of the engineered chimeric receptor SEQ ID NO:33 that comprise the indicated double amino acid substitutions following stimulation by various doses of either acetylcholine or the indicated non-native ligand. Ligand doses are written across the top of each chart. Numbers in the boxes indicate the absolute amount of quench observed. Dark blue=80% maximal quench of YFP reporter. Light blue=quench of 30-80%. White=10-30%. Orange=0-10% quench. Negative values represent non-responders that have a negative quench due to a stimulation artifact. SEQ ID NO:29 is a non-responding chimera used as a negative control. Abbreviations for non-native ligand names: abt: ABT-126; ach: acetylcholine; apn: APN-1125; azd: AZD-0328; brd: TC-5619; fac: RG3487; tc6: TC-6987.
# (§2) Tables 2-8 below lists percent quench of YFP fluorescence following stimulation of the indicated engineered receptor by various doses of either acetylcholine or the non-native ligand.
# (§3) To screen these mutant LGICs for those having novel response profiles to ligands, an anion reporter assay was developed to assess the function of channels in a high throughput format. In this assay, cells expressing a YFP reporter whose fluorescence is quenched in the presence of anion are transfected with DNA encoding the channel of interest. Upon exposure to ligand, channels that are activated will flux anion, resulting in a dose-dependent quench of the YFP that can be detected on a plate reader.
# (§4) Lenti-X 293T cells (LX293T, Clontech) were maintained in DMEM containing 10% FBS and 1% penicillin/streptomycin (Invitrogen). […] Two days before assay, cells were split at a density of 20,000 cells/well in a 96-well tissue culture plate coated with poly-d lysine (Thermo Scientific). The next day, the cells were transiently transfected with 0.1 μg of DNA per well using standard Fugene protocol (Promega). On the day of assay, cells were washed 2 times in 1× extracellular solution (1×ECS: 140 mM NaCl, 5 mM KCl, 1 mM MgCl2, 2 mM CaCl2, 10 mM HEPES, 10 mM glucose, pH 7.2, mOsms 300). After the last wash, 100 μL of 1×ECS was added to the wells and the plate was incubated at 37° C. for 30 min. While incubating the plate, the drugs were diluted to a 2× concentration in 1×ECS-NaI (same components as 1×ECS except the 140 mM NaCl was replaced by 140 mM NaI). The plates were then read on a Flexstation3 (Molecular Devices). Each well, 8 wells at a time, of the plate is read for 2 min using a Flexstation3 (Molecular Devices) as follows: 1) a baseline YFP fluorescence is read for 17 sec, 2) 100 μL of ligand is added, and 3) the changes in YFP fluorescence are then measured every 1.3 sec for the remaining time.
# (§5) FIG. 1 provides heat maps of the percent quench of YFP fluorescence following stimulation by various doses of either acetylcholine or the non-native ligand as indicated in the Figure. A positive fluorescence signal, as indicated by blue shaded cells, indicate that the engineered receptor is activated by the non-native ligand at that concentration. […] Table 12 lists the EC50 values for the indicated double mutants to acetylcholine (Ach) and TC-5619 as determined from the YFP fluorescence plate reader experiment.
# [2] = YFP quench plate reader assay, response to acetylcholine; conditions: LX293T YFP reporter cells; for percent quench of YFP fluorescence, 10 uM ach: 10 uM acetylcholine; for percent quench of YFP fluorescence, 100 uM ach: 100 uM acetylcholine; for percent quench of YFP fluorescence, 1 mM ach: 1 mM acetylcholine; for percent quench of YFP fluorescence, 3 mM ach: 3 mM acetylcholine
# Source text: as §1, §2, §3, §4, §5
# [3] = YFP quench plate reader assay, response to APN-1125; conditions: LX293T YFP reporter cells; for percent quench of YFP fluorescence, 100 nM apn: 100 nM APN-1125; for percent quench of YFP fluorescence, 1 uM apn: 1 uM APN-1125; for percent quench of YFP fluorescence, 30 uM apn: 30 uM APN-1125
# Source text: as §1, §2, §3, §4, §5
# [4] = YFP quench plate reader assay, response to AZD-0328; conditions: LX293T YFP reporter cells; for percent quench of YFP fluorescence, 100 nM azd: 100 nM AZD-0328; for percent quench of YFP fluorescence, 300 nM azd: 300 nM AZD-0328; for percent quench of YFP fluorescence, 30 uM azd: 30 uM AZD-0328
# Source text: as §1, §2, §3, §4, §5
# [5] = YFP quench plate reader assay, response to TC-5619; conditions: LX293T YFP reporter cells
# Source text: as §1, §2, §3, §4, §5
# [6] = YFP quench plate reader assay, response to RG3487; conditions: LX293T YFP reporter cells; for percent quench of YFP fluorescence, 30 nM fac: 30 nM RG3487; for percent quench of YFP fluorescence, 300 nM fac: 300 nM RG3487; for percent quench of YFP fluorescence, 30 uM fac: 30 uM RG3487
# Source text: as §1, §2, §3, §4, §5
# [7] = YFP quench plate reader assay, response to TC-6987; conditions: LX293T YFP reporter cells; for percent quench of YFP fluorescence, 1 uM tc6: 1 uM TC-6987; for percent quench of YFP fluorescence, 10 uM tc6: 10 uM TC-6987; for percent quench of YFP fluorescence, 500 uM tc6: 500 uM TC-6987
# Source text: as §1, §2, §3, §4, §5
# [8] = High throughput electrophysiology in HEK293T cells, AZD-0328; conditions: HEK293T cells, held at −60 mV
# Method: To confirm the EC50s determined by plate reader as well as develop a better understanding of maximum current flow, the engineered receptors were subjected to high throughput electrophysiology system, as described below. For HEK293T studies, cDNAs encoding ion channels were cloned into pcDNA3.1 using standard recombination techniques. HEK293T cells from Clontech (Lenti-X™ 293T Cell Line) were cultured in DMEM supplemented with 10% FBS and 1% Pen/Strep to 40-50% confluence using standard cell culture protocols, transfected with ion channel plasmids at a concentration of 18 μg per 15 cm dish using Fugene 6, and grown for an additional 24 hours. Cells were then assayed on a electrophysiological system (IonFluxHT and/or Mercury, Fluxion Biosciences) in which dose-response relationships may be assessed through a microfluidics-based platform for establishing whole cell configurations. Ensemble plates were primed with extracellular buffer (140 mM NaCl, 5 mM KCl, 2 mM CaCl2), 1 mM MgCl2, 10 mM HEPES, and 10 mM glucose, pH 7.2 with NaOH, mOsm 310), intracellular buffer (145 mM CsCl, 2 mM CaCl2, 2 mM MgCl2, 10 mM HEPES, and 10 mM EGTA, pH 7.2 with CsOH, mOsm 305), as adapted from Lynagh and Lynch, and test compounds (stocks prepared fresh) diluted in extracellular buffer. Cells were then released from the plate with Accutase, centrifuged, resuspended in extracellular buffer, and loaded into Ensemble plates. Cells were then subjected to a standard protocol for priming, trapping, breaking, and establishing whole cell configuration, with cells held at −60 mV throughout the recording. After recording baseline, progressive doses of test compounds were applied using the IonFlux software to assess dose response relationships. Data were then analyzed off-line using custom Python scripts to convert data to .csv format, re-plot traces, and apply QC measurements to reject unstable recordings (i.e. thresholding based on access resistance and/or standard deviation in baseline, as well as artifact rejection). Peak currents were then calculated and population data were fit using a 4-parameter logistic equation as described by the Hill Equation. Currents were measured on an automated patch clamp system (Fluxion Biosciences) following 1 second addition of drug and the EC50 values calculated are tabulated below in Table 13.
molecule,measurement,setting,value
"L131S, S172D in SEQ ID NO: 33: engineered chimeric α7-nAChR/GlyRα1 LGIC receptor: SEQ ID NO: 33 with substitutions L131S and S172D (protein, synthetic sequence of chimeric LGIC) MRCSPGGVWLALAASLLHVSLQGEFQRKLYKELVKNYNPLERPVANDSQPLTVYFSLSLLQIMDVDEKNQVLTTNIWLQMSWTDHYLQWNVSEYPGVKTVRFPDGQIWKPDILLYNSADERFDATFHTNVSVNSSGHCQYLPPGIFKSSCPMDLKNFPMDVQTCKLKFGSWDYGGWSLDLQMQEADISGYIPNGEWDLVGIPGKRSERFYECCKEPYPDVTFTVTMRRRMGYYLIQMYIPSLLIVILSWISFWINMDAAPARVGLGITTVLTMTTQSSGSRASLPKVSYVKAIDIWMAVCLLFVFSALLEYAAVNFVSRQHKELLRFRRKRRHHKSPMLNLFQEDEAGEGRFNFSAYGMGPACLQAKDGISVKGANNSNTTNPPPAPSKSPEEMRKLFIQRAKKIDKISRIGFPMAFLIFNMFYWIIYKIVRREDVHNQ","percent quench of YFP fluorescence, 50 nM abt",[1],−11.96%
same,"percent quench of YFP fluorescence, 100 nM abt",[1],−10.72%
same,"percent quench of YFP fluorescence, 300 nM abt",[1],11.65%
same,"percent quench of YFP fluorescence, 1 uM abt",[1],−3.06%
same,"percent quench of YFP fluorescence, 10 uM ach",[2],−11.3%
same,"percent quench of YFP fluorescence, 100 uM ach",[2],−27.53%
same,"percent quench of YFP fluorescence, 1 mM ach",[2],2.84%
same,"percent quench of YFP fluorescence, 3 mM ach",[2],14.65%
same,"percent quench of YFP fluorescence, 100 nM apn",[3],14.26%
same,"percent quench of YFP fluorescence, 1 uM apn",[3],45.55%
same,"percent quench of YFP fluorescence, 30 uM apn",[3],64.93%
same,"percent quench of YFP fluorescence, 100 nM azd",[4],−9.32%
same,"percent quench of YFP fluorescence, 300 nM azd",[4],4.94%
same,"percent quench of YFP fluorescence, 30 uM azd",[4],60.61%
same,"percent quench of YFP fluorescence, 1 nM brd",[5]; 1 nM TC-5619,−1.13%
same,"percent quench of YFP fluorescence, 3 nM brd",[5]; 3 nM TC-5619,−3.83%
same,"percent quench of YFP fluorescence, 10 nM brd",[5]; 10 nM TC-5619,−3.78%
same,"percent quench of YFP fluorescence, 100 nM brd",[5]; 100 nM TC-5619,−2.03%
same,"percent quench of YFP fluorescence, 1 uM brd",[5]; 1 uM TC-5619,1.68%
same,"percent quench of YFP fluorescence, 30 nM fac",[6],−23.44%
same,"percent quench of YFP fluorescence, 300 nM fac",[6],2.75%
same,"percent quench of YFP fluorescence, 10 uM fac",[6]; 10 uM RG3487,69.71%
same,"percent quench of YFP fluorescence, 30 uM fac",[6],61.44%
same,"percent quench of YFP fluorescence, 1 uM tc6",[7],−20.99%
same,"percent quench of YFP fluorescence, 10 uM tc6",[7],−27.62%
same,"percent quench of YFP fluorescence, 500 uM tc6",[7],−24.22%
"L131T, S172D in SEQ ID NO: 33: engineered chimeric α7-nAChR/GlyRα1 LGIC receptor: SEQ ID NO: 33 with substitutions L131T and S172D (protein, synthetic sequence of chimeric LGIC) MRCSPGGVWLALAASLLHVSLQGEFQRKLYKELVKNYNPLERPVANDSQPLTVYFSLSLLQIMDVDEKNQVLTTNIWLQMSWTDHYLQWNVSEYPGVKTVRFPDGQIWKPDILLYNSADERFDATFHTNVTVNSSGHCQYLPPGIFKSSCPMDLKNFPMDVQTCKLKFGSWDYGGWSLDLQMQEADISGYIPNGEWDLVGIPGKRSERFYECCKEPYPDVTFTVTMRRRMGYYLIQMYIPSLLIVILSWISFWINMDAAPARVGLGITTVLTMTTQSSGSRASLPKVSYVKAIDIWMAVCLLFVFSALLEYAAVNFVSRQHKELLRFRRKRRHHKSPMLNLFQEDEAGEGRFNFSAYGMGPACLQAKDGISVKGANNSNTTNPPPAPSKSPEEMRKLFIQRAKKIDKISRIGFPMAFLIFNMFYWIIYKIVRREDVHNQ","percent quench of YFP fluorescence, 50 nM abt",[1],−11.09%
same,"percent quench of YFP fluorescence, 100 nM abt",[1],−10.37%
same,"percent quench of YFP fluorescence, 300 nM abt",[1],−4%
same,"percent quench of YFP fluorescence, 1 uM abt",[1],4.05%
same,"percent quench of YFP fluorescence, 10 uM ach",[2],−12.24%
same,"percent quench of YFP fluorescence, 100 uM ach",[2],−26.23%
same,"percent quench of YFP fluorescence, 1 mM ach",[2],−1.16%
same,"percent quench of YFP fluorescence, 3 mM ach",[2],2.97%
same,"percent quench of YFP fluorescence, 100 nM apn",[3],1.23%
same,"percent quench of YFP fluorescence, 1 uM apn",[3],35.77%
same,"percent quench of YFP fluorescence, 30 uM apn",[3],68.29%
same,"percent quench of YFP fluorescence, 100 nM azd",[4],−7.02%
same,"percent quench of YFP fluorescence, 300 nM azd",[4],−0.48%
same,"percent quench of YFP fluorescence, 30 uM azd",[4],70.16%
same,"percent quench of YFP fluorescence, 30 nM fac",[6],−21.36%
same,"percent quench of YFP fluorescence, 300 nM fac",[6],4.17%
same,"percent quench of YFP fluorescence, 30 uM fac",[6],65.94%
same,"percent quench of YFP fluorescence, 1 uM tc6",[7],−21.8%
same,"percent quench of YFP fluorescence, 10 uM tc6",[7],−27.08%
same,"percent quench of YFP fluorescence, 500 uM tc6",[7],−21.56%
"Y115D in SEQ ID NO: 33: SEQ ID NO: 33 chimeric receptor with single substitution Y115D (protein, synthetic sequence of chimeric LGIC) MRCSPGGVWLALAASLLHVSLQGEFQRKLYKELVKNYNPLERPVANDSQPLTVYFSLSLLQIMDVDEKNQVLTTNIWLQMSWTDHYLQWNVSEYPGVKTVRFPDGQIWKPDILLDNSADERFDATFHTNVLVNSSGHCQYLPPGIFKSSCPMDLKNFPMDVQTCKLKFGSWSYGGWSLDLQMQEADISGYIPNGEWDLVGIPGKRSERFYECCKEPYPDVTFTVTMRRRMGYYLIQMYIPSLLIVILSWISFWINMDAAPARVGLGITTVLTMTTQSSGSRASLPKVSYVKAIDIWMAVCLLFVFSALLEYAAVNFVSRQHKELLRFRRKRRHHKSPMLNLFQEDEAGEGRFNFSAYGMGPACLQAKDGISVKGANNSNTTNPPPAPSKSPEEMRKLFIQRAKKIDKISRIGFPMAFLIFNMFYWIIYKIVRREDVHNQ",EC50 AZD-0328,[8],no activity

# Reference: US20220348635A1, “COMPOSITIONS AND METHODS FOR NEUROLOGICAL DISEASES” (Coda Biotherapeutics, Inc., priority 2019, published 2022)
